Laboratory results from PMC8595650, “Structure of the bacterial flagellar hook cap provides insights into a hook assembly mechanism” (Communications Biology, 2021).
Values joined by “and” are separate entries in the source; they are usually repeats but may differ in a detail not shown here. Identical values can stand only once.

Target: the molecule itself
Test: cross-linking; purified FlgD with EDC and Sulfo-NHS (molar ratio 1 : 2000) or DTSSP (1 : 50), products on SDS-PAGE

B1: S. enterica FlgD (flagellar hook cap protein, 232 amino acid residues) (natural protein)
chain: MSIAVNMNDPTNTGVKTTTGSGSMTGSNAADLQSSFLTLLVAQLKNQDPTNPLQNNELTTQLAQISTVSGIEKLNTTLGAISGQIDNSQSLQATTLIGHGVMVPGTTILAGKGAEEGAVTSTTPFGVELQQPADKVTATITDKDGRVVRTLEIGELRAGVHTFTWDGKQTDGTTVPNGSYNIAITASNGGTQLVAQPLQFALVQGVTKGSNGNLLDLGTYGTTTLDEVRQII
notes: Separates on gel filtration into a pentamer and a monomer fraction; A seleno-methionine form (E. coli B834(DE3)) was used for phasing only; also called full-length FlgD; source: E. coli BL21(DE3)pLysS, purified (Q-Sepharose, Butyl-Sepharose, Superdex 200)
**Q.** For B1, which “stoichiometry N” value is on record?
**A.** 5 and 10
